Data published in article PMC8637566, “ERK signaling controls productive HIF‐1 binding to chromatin and cancer cell adaptation to hypoxia through HIF‐1α interaction with NPM1” (Molecular Oncology, 2021).

B1: TAT‐ETD(SE)‐FLAG peptide (peptide, UniProt Q16665 616-658, looked up)
chain: TTTATTDELKTVTKDRMEDIKILIAEPSPTHIHKETTSATSSP
notes: HIF-1α ERK targeted domain (ETD), residues 616–658, Ser641 to Glu; source: E. coli, purified

Key:
[1] = target: NPM1 (nucleophosmin, B23) (UniProt P06748); test: anti-FLAG IP of transduced peptide, NPM1 blot; conditions: reference: TAT-ETD-FLAG WT; sites S641,S643
[2] = target: T1, GST‐NPM1 B23.1 (UniProt P06748 1-294); test: pull-down; GST-NPM1 forms immobilised on GSH-agarose as baits, bacterially expressed and purified HIF-1α(348–826)SE or TAT-ETD-SE-FLAG peptide as prey; immunoblot with anti-HIF-1α or anti-Flag; conditions: both partners purified
T1 construct: NPM1 isoform B23.1, the most abundant form, with the C-terminal aromatic stretch; also called GST‐B23.1; B23.1 form of recombinant NPM1; source: E. coli BL21 (RIL), purified (GSH‐agarose)
T1 sequence (P06748 whole entry, canonical isoform): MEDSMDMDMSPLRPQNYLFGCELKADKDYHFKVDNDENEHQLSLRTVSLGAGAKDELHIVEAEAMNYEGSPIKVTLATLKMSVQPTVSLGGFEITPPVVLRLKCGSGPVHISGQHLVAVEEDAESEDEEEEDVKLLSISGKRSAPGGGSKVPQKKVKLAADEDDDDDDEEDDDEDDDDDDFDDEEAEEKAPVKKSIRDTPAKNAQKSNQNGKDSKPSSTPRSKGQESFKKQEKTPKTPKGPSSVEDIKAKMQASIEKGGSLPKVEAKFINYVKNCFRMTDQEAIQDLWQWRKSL

Molecule	binding against the reference [1]	binding result [2]
HIF‐1α ETD, 616-658 (from UniProt Q16665) TAT-ETD-SA-FLAG	lost	–
B1	–	binds
